From patent publication US20190233507A1 (CORNELL UNIVERSITY, published 2019)

Target: β-galactosidase (UniProt P00722 2-1024 = β-galactosidase, limits assumed)
Experiment: ELISA, plate coated with 1 µg β-gal per well, anti-FLAG-HRP detection
Text: FIGS. 1A-D illustrate ubiquibody expression and binding. FIG. 1A is a schematic depiction of pET28a constructs used to express ubiquibodies (“uAb”) in E. coli, which includes single chain Fv antibody fragment (“scFv”), GSGSG linker (“˜”), human C-terminus of Hsc70-interacting protein (“CHIP”) without the N-terminal TPR domain (“[…]”), a FLAG-tag (“F”) and a 6×His-tag (“H6”). FIG. 1B is a western blot of the soluble fractions isolated from BL21(DE3) E. coli cells expressing wild-type human CHIP, inactivated CHIPH260Q, CHIPΔTPR, scFv13R4, scFv13R4-uAb, scFv13-uAb and scFvD10-uAb. An equivalent amount of total protein was loaded in each lane and expression was assayed using anti-FLAG-HRP. FIG. 1C is a graph showing ELISA results where a plate was coated with 1 μg β-gal per well and incubated with 160 ng of purified protein per well. Samples were performed in triplicate and error bars represent the standard deviation of the mean. […]
Briefly, ELISAs were performed using a 96-well plate coated with antigen (β-gal, gpD or Hsp70) at a concentration of 10 μg/mL (1 μg of antigen per well) and incubated overnight at 4° C. […] The amount of bound anti-flag-HRP was determined by using SigmaFAST™ o-phenylenediamine dihydrochloride (OPD) tablets for detection of peroxidase activity at 492 nm.

Chain of β-galactosidase (P00722 2-1024 limits assumed): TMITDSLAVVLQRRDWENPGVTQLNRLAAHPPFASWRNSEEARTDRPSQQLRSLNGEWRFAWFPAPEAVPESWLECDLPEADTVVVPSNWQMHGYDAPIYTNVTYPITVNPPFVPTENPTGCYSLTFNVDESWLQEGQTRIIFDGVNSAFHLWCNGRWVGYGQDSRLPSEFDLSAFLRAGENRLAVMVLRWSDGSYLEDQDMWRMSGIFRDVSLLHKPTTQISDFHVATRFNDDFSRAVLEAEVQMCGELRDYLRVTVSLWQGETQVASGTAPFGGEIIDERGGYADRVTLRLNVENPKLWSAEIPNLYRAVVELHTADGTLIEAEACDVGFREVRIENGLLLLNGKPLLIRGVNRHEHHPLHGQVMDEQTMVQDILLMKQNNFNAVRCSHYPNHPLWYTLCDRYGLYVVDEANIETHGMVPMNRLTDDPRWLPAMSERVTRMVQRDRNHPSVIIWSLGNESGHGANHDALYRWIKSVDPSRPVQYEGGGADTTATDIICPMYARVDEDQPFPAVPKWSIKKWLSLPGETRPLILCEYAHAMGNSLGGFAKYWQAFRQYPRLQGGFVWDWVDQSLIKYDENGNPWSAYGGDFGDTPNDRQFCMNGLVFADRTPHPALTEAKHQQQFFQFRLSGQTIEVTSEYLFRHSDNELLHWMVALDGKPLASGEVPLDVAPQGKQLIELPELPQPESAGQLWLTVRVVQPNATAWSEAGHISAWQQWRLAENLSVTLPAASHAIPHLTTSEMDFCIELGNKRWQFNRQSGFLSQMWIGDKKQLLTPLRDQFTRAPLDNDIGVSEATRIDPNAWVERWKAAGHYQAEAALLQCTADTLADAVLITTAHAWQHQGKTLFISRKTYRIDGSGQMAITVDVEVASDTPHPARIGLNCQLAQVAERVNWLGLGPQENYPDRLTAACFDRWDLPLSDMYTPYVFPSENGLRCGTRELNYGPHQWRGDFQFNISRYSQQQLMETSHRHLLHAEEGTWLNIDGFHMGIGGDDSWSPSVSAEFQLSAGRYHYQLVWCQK

B1: CHIPΔTPR (Construct 3: hCHIPdTPR-FLAGtag-His6tag) (enzyme)
chain: MGRLNFGDDIPSALRIAKKKRWNSIEERRIHQESELHSYLSRLIAAERERELEECQRNHEGDEDDSHVRAQQACIEAKHDKYMADMDELFSQVDEKRKKRDIPDYLCGKISFELMREPCITPSGITYDRKDIEEHLQRVGHFDPVTRSPLTQEQLIPNLAMKEVIDAFISENGWVEDYVDGADYKDDDDKGHHHHHH
notes: Control protein, purified from E. coli
binding result: no binding (tested: 160 ng of purified protein per well)
